Reference: the supplement of paper PMC10567573

B1: IKZF1 (parent)
chain: RDPFECNMCGYHSQDRYEFSSHIT

Variants of: B1
Assay: protein stability index of a GFP-peptide fusion (GPS, HEK-293T) (PSI 1-6); higher = more stable
Settings: c terminus: a fixed tail appended
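Note: lentivirally expressed fusions sorted by FACS into six bins by GFP to DsRed ratio, PSI derived from sequencing read proportions per bin multiplied by bin number.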

Protein stability index: each site, then its substitutions
Y17: W 2.54; C 2.38; R 2.1; S 2.43; G 2.19; D 3.1; L 2.22; N 2.83; P 2.81; A 2.28; M 2.16; T 1.89; I 2.16; K 2.21; H 2.81; Q 2.1; F 2.07; E 3; V 1.76
S13: D 2.49; E 2.53; L 1.75; F 1.78; C 1.74; R 2.04; M 1.66; Q 2.39; K 2.1; W 2.28; V 1.91; N 2.39; I 1.91; H 3.15; P 3; Y 1.92; G 2.17; T 2.1; A 2.26
Q14: P 2.3; M 1.86; N 2.42; I 2.13; H 2.22; C 1.87; F 1.47; V 1.85; K 1.97; E 2.29; L 1.93; Y 2.31; D 2.09; A 1.98; S 2.43; T 2.17; R 2.25; G 2.38; W 1.22
G10: Y 2.66; W 1.73
Y11: Q 2.61; N 2.71; G 3.49; F 2.01; T 2.6; S 2.62; R 2.62; K 3.13; C 2.13; A 2.58; I 1.86; M 2.59; V 2.45; D 3.51; E 3.29; P 2.69; W 1.45; L 2.65; H 2.71
R16: E 3.15; S 1.98; H 2.51; C 2.23; Q 2.33; G 2.56; T 2.6; W 2.03; Y 1.75; P 2.5; M 2.78; F 2.21; A 2.3; L 2.12; N 2.57; V 2.42; D 2.85; I 2.74; K 2.01
E18: D 2.38; N 1.54; Q 1.79; R 1.99; A 1.91; H 2.08; K 1.74; T 1.54; I 2.18; P 1.67; G 2.63; W 1.51; F 2.39; L 2.21; M 1.54; S 2.11; V 2.72; Y 1.43; C 1.91
D15: A 1.98; Y 1.66; H 1.68; E 1.87; R 2.14; K 1.65; I 1.56; G 1.98; C 2.32; N 2.17; T 2.12; S 1.54; L 1.81; V 1.8; M 2.02; F 1.76; W 2.13; Q 2.34; P 2.01
H12: T 2.53; Y 1.97; K 2.27; D 2.69; F 2.15; W 1.63; L 2.69; P 2.49; M 1.5; E 2.39; Q 3.01; A 2.6; V 1.75; G 2.25; I 2; C 1.82; S 2.06; N 2.72; R 2.23
F19: E 3.35; N 3.27; L 1.61; K 3.06; H 3.13; G 3.13; P 3; Q 3.14; M 2.28; A 2.59; I 2.4; D 3.29; C 2.39
